In patent US12098186 (NATIONAL TECHNOLOGY AND ENGINEERING SOLUTIONS OF SANDIA, dated 2024):
Where two headings read alike, the source gives them in different places.

Experiments:
[1] = biological target: T1, SARS-CoV-2 receptor-binding domain (RBD) of the spike protein (SARS-CoV-2, UniProt P0DTC2 319-541)
[2] = biological target: T1, SARS-CoV-2 receptor-binding domain …; remark: listed apart in the source
[3] = biological target: T1, SARS-CoV-2 receptor-binding domain …; test: cell-based or functional assay
[4] = biological target: T1, SARS-CoV-2 receptor-binding domain …; remark: listed apart in the source
[5] = biological target: T1, SARS-CoV-2 receptor-binding domain …; remark: listed apart in the source

Row | Binder | Kd [1] | Kd [2] | Neutralization EC50 [3] | Kd [4] | Kd [5]
1 | SP1B4-U biparatopic nanobody construct (SP1B4 and U nanobodies on heterodimeric human IgG1 Fc) (bispecific antibody, V domains shown, not shown: a dimerising Fc or GST) V domain 1: EVQLQASGGGFVQPGGSLRLSCAASGRAFGIYRMGWFRQAPGKEREFVSAISGGDAGHTRYADSVKGRFTISRDNSKNTVYLQMNSLRAEDTATYYCAYWDYNGVVPFFKYWGQGTQVTVSS V domain 2: QVQLVESGGGLVQPGGSLRLSCAASGFTLDYYAIGWFRQAPGKEREGVSCISSSGGSTHFADSVKGRFTISRDNAKNTVYLQMNSLIPEDTAVYYCAAQSGSYYWCGSDWHEYEYWGQGTQVTVSS | 2.2 nM | 2.2 nM | 0.025 nM |  | 
2 | SP3H4-U biparatopic nanobody construct (SP3H4 and U nanobodies on heterodimeric human IgG1 Fc) (bispecific antibody, V domains shown, not shown: a dimerising Fc or GST) V domain 1: EVQLQASGGGFVQPGGSLRLSCAASGTAYGWSRMGWFRQAPGKEREFVSAISRASAGYAQYADSVKGRFTISRDNSKNTVYLQMNSLRAEDTATYYCAFPLHDQGEPYGWYWGQGTQVTVSS V domain 2: QVQLVESGGGLVQPGGSLRLSCAASGFTLDYYAIGWFRQAPGKEREGVSCISSSGGSTHFADSVKGRFTISRDNAKNTVYLQMNSLIPEDTAVYYCAAQSGSYYWCGSDWHEYEYWGQGTQVTVSS | 0.79 nM |  | 0.023 nM | 0.79 nM | 
3 | SP1D9-U biparatopic nanobody construct (SP1D9 and U nanobodies on heterodimeric human IgG1 Fc) (bispecific antibody, V domains shown, not shown: a dimerising Fc or GST) V domain 1: EVQLQASGGGFVQPGGSLRLSCAASGRYDSYVRMGWFRQAPGKEREFVSAISGGGDKSTWYADSVKGRFTISRDNSKNTVYLQMNSLRAEDTATYYCANAQLGPAYDKIGYWGQGTQVTVSS V domain 2: QVQLVESGGGLVQPGGSLRLSCAASGFTLDYYAIGWFRQAPGKEREGVSCISSSGGSTHFADSVKGRFTISRDNAKNTVYLQMNSLIPEDTAVYYCAAQSGSYYWCGSDWHEYEYWGQGTQVTVSS |  |  |  |  | 2 nM
